# Target: T1, His6-Flag-tagged human N-WASP (human, UniProt O00401 1-505)
# T1 construct: also called His-Flag-N-WASP; N-WASP of the recombinant N-WASP/WIP complex
# Assay: SEC
# Conditions: partners not purified
# T1 sequence (O00401 whole entry): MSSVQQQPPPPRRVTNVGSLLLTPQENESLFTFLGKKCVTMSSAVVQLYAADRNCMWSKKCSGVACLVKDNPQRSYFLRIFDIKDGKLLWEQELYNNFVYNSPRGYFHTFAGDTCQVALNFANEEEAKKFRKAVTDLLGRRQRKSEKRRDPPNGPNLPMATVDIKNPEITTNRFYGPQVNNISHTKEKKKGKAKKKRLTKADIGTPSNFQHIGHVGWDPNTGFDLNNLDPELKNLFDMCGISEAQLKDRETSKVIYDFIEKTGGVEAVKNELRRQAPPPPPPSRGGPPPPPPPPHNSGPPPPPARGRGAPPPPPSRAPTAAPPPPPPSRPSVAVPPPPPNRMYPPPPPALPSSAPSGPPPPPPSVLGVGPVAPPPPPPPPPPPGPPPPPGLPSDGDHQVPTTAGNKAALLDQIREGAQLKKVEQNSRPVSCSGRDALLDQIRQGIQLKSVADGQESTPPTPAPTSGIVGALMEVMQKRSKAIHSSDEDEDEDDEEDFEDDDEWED
binder,measurement,value
"His6-Myc-tagged human WIP (natural protein, also called His-Myc-WIP) not shown",stoichiometry N,1
